Data reported in article PMC2936784 (Science (New York, N.Y.), 2009).

Target: PTEN, purified from HEK293 cells (UniProt P60484 1-403)
Assay: enzyme inhibition kinetics

PTEN, purified from HEK293 cells, sequence (P60484 whole entry): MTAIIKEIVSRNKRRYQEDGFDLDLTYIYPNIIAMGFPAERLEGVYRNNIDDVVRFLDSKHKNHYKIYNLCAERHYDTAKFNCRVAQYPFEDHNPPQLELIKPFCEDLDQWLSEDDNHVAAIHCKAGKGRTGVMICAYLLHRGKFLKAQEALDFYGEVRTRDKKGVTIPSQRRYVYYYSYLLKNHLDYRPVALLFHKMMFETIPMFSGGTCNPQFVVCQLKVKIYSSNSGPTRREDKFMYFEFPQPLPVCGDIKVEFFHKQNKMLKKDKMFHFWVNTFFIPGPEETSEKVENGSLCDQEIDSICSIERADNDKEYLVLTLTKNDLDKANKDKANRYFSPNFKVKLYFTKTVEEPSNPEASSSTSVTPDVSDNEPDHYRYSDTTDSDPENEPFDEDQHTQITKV

B1: Affinity purified full-length P-REX2a (natural protein, UniProt Q70Z35 1-1606, looked up)
chain: MSEDSRGDSRAESAKDLEKQLRLRVCVLSELQKTERDYVGTLEFLVSAFLHRMNQCAASKVDKNVTEETVKMLFSNIEDILAVHKEFLKVVEECLHPEPNAQQEVGTCFLHFKDKFRIYDEYCSNHEKAQKLLLELNKIRTIRTFLLNCMLLGGRKNTDVPLEGYLVTPIQRICKYPLILKELLKRTPRKHSDYAAVMEALQAMKAVCSNINEAKRQMEKLEVLEEWQSHIEGWEGSNITDTCTEMLMCGVLLKISSGNIQERVFFLFDNLLVYCKRKHRRLKNSKASTDGHRYLFRGRINTEVMEVENVDDGTADFHSSGHIVVNGWKIHNTAKNKWFVCMAKTPEEKHEWFEAILKERERRKGLKLGMEQDTWVMISEQGEKLYKMMCRQGNLIKDRKRKLTTFPKCFLGSEFVSWLLEIGEIHRPEEGVHLGQALLENGIIHHVTDKHQFKPEQMLYRFRYDDGTFYPRNEMQDVISKGVRLYCRLHSLFTPVIRDKDYHLRTYKSVVMANKLIDWLIAQGDCRTREEAMIFGVGLCDNGFMHHVLEKSEFKDEPLLFRFFSDEEMEGSNMKHRLMKHDLKVVENVIAKSLLIKSNEGSYGFGLEDKNKVPIIKLVEKGSNAEMAGMEVGKKIFAINGDLVFMRPFNEVDCFLKSCLNSRKPLRVLVSTKPRETVKIPDSADGLGFQIRGFGPSVVHAVGRGTVAAAAGLHPGQCIIKVNGINVSKETHASVIAHVTACRKYRRPTKQDSIQWVYNSIESAQEDLQKSHSKPPGDEAGDAFDCKVEEVIDKFNTMAIIDGKKEHVSLTVDNVHLEYGVVYEYDSTAGIKCNVVEKMIEPKGFFSLTAKILEALAKSDEHFVQNCTSLNSLNEVIPTDLQSKFSALCSERIEHLCQRISSYKKFSRVLKNRAWPTFKQAKSKISPLHSSDFCPTNCHVNVMEVSYPKTSTSLGSAFGVQLDSRKHNSHDKENKSSEQGKLSPMVYIQHTITTMAAPSGLSLGQQDGHGLRYLLKEEDLETQDIYQKLLGKLQTALKEVEMCVCQIDDLLSSITYSPKLERKTSEGIIPTDSDNEKGERNSKRVCFNVAGDEQEDSGHDTISNRDSYSDCNSNRNSIASFTSICSSQCSSYFHSDEMDSGDELPLSVRISHDKQDKIHSCLEHLFSQVDSITNLLKGQAVVRAFDQTKYLTPGRGLQEFQQEMEPKLSCPKRLRLHIKQDPWNLPSSVRTLAQNIRKFVEEVKCRLLLALLEYSDSETQLRRDMVFCQTLVATVCAFSEQLMAALNQMFDNSKENEMETWEASRRWLDQIANAGVLFHFQSLLSPNLTDEQAMLEDTLVALFDLEKVSFYFKPSEEEPLVANVPLTYQAEGSRQALKVYFYIDSYHFEQLPQRLKNGGGFKIHPVLFAQALESMEGYYYRDNVSVEEFQAQINAASLEKVKQYNQKLRAFYLDKSNSPPNSTSKAAYVDKLMRPLNALDELYRLVASFIRSKRTAACANTACSASGVGLLSVSSELCNRLGACHIIMCSSGVHRCTLSVTLEQAIILARSHGLPPRYIMQATDVMRKQGARVQNTAKNLGVRDRTPQSAPRLYKLCEPPPPAGEE
- Ki: 19 nM
